Source: paper PMC2526197 (The Journal of Experimental Medicine, 2008)

T1: Evasin-1 (Rhipicephalus sanguineus, UniProt P0C8E7 21-114)
T1 sequence (looked up): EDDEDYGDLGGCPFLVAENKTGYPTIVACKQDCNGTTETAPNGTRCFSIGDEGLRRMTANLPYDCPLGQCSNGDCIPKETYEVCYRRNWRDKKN

T2: CXCL1 (human, UniProt P09341 35-107)
T2 sequence (looked up): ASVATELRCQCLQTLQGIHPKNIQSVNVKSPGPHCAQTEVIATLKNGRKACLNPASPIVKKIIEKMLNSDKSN

T3: KC (mouse, UniProt P12850 25-96)
T3 sequence (looked up): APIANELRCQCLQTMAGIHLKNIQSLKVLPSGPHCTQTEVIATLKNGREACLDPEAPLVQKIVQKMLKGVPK

T4: MIP-2 (mouse, UniProt P10889 28-100)
T4 sequence (looked up): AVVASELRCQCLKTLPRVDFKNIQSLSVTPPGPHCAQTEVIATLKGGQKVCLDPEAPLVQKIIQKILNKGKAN


Legend:
Test in all cases: SPR
Evasin-1 = biological target: T1, Evasin-1
CXCL1 = biological target: T2, CXCL1
KC = biological target: T3, KC
MIP-2 = biological target: T4, MIP-2

| Kd (Evasin-1) [nM] | koff (Evasin-1) [s⁻¹] | kon (Evasin-1) [M⁻¹ s⁻¹] | Kd (CXCL1) [nM] | koff (CXCL1) [s⁻¹] | kon (CXCL1) [M⁻¹ s⁻¹] | Kd (KC) [nM] | koff (KC) [s⁻¹] | kon (KC) [M⁻¹ s⁻¹] | Kd (MIP-2) [nM] | koff (MIP-2) [s⁻¹] | kon (MIP-2) [M⁻¹ s⁻¹] | Binder |
| --- | --- | --- | --- | --- | --- | --- | --- | --- | --- | --- | --- | --- |
| 0.15 | 0.00058 ± 0.12 | 3.84e+06 ± 1.42 | – | – | – | – | – | – | – | – | – | murine MIP-1β (ligand, mouse, UniProt P14097 24-92, looked up) APMGSDPPTSCCFSYTSRQLHRSFVMDYYETSSLCSKPAVVFLTKRGRQICANPSEPWVTEYMSDLELN |
| 0.08 | 0.00118 ± 1.07 | 1.56e+07 ± 16 | – | – | – | – | – | – | – | – | – | murine MIP-1α (ligand, mouse, UniProt P10855 24-92, looked up) APYGADTPTACCFSYSRKIPRQFIVDYFETSSLCSQPGVIFLTKRNRQICADSKETWVQEYITDLELNA |

Second part, the binder before the results:

| Binder | Kd (Evasin-1) [nM] | koff (Evasin-1) [s⁻¹] | kon (Evasin-1) [M⁻¹ s⁻¹] | Kd (CXCL1) [nM] | koff (CXCL1) [s⁻¹] | kon (CXCL1) [M⁻¹ s⁻¹] | Kd (KC) [nM] | koff (KC) [s⁻¹] | kon (KC) [M⁻¹ s⁻¹] | Kd (MIP-2) [nM] | koff (MIP-2) [s⁻¹] | kon (MIP-2) [M⁻¹ s⁻¹] |
| --- | --- | --- | --- | --- | --- | --- | --- | --- | --- | --- | --- | --- |
| CCL3 (ligand, human, UniProt P10147 24-92, looked up) SLAADTPTACCFSYTSRQIPQNFIADYFETSSQCSKPGVIFLTKRSRQVCADPSEEWVQKYVSDLELSA | 0.12 | 0.00243 ± 0.61 | 1.38e+07 ± 3.54 | – | – | – | – | – | – | – | – | – |
| CCL4 (ligand, human, UniProt P13236 24-92, looked up) APMGSDPPTACCFSYTARKLPRNFVVDYYETSSLCSQPAVVFQTKRSKQVCADPSESWVQEYVYDLELN | 0.51 | 0.0022 ± 0.18 | 4.29e+06 ± 2.58 | – | – | – | – | – | – | – | – | – |
| Evasin-3 (HEK) (natural protein, Rhipicephalus sanguineus, UniProt P0C8E8 21-86, looked up, also: extensively glycosylated) LVSTIESRTSGDGADNFDVVSCNKNCTSGQNECPEGCFCGLLGQNKKGHCYKIIGNLSGEPPVVRR | – | – | – | 0.34 | 0.00142 ± 0.36 | 3.95e+06 ± 4.23 | 2.25 | 0.00144 ± 0.35 | 640000 ± 0.58 | 0.4 | 0.00033 ± 0.11 | 790000 ± 0.9 |
| Evasin-3 (E. coli) (natural protein, Rhipicephalus sanguineus, UniProt P0C8E8 21-86, looked up) LVSTIESRTSGDGADNFDVVSCNKNCTSGQNECPEGCFCGLLGQNKKGHCYKIIGNLSGEPPVVRR | – | – | – | 0.85 | 0.00222 ± 0.49 | 2.61e+06 ± 0.69 | 5.78 | 0.00185 ± 0.43 | 320000 ± 0.17 | 0.64 | 0.00065 ± 0.25 | 1.02e+06 ± 0.56 |
| CCL3L1 (ligand, human, UniProt P16619 24-93, looked up) APLAADTPTACCFSYTSRQIPQNFIADYFETSSQCSKPSVIFLTKRGRQVCADPSEEWVQKYVSDLELSA | 0.05 | 0.00067 ± 0.13 | 1.32e+07 ± 2.9 | – | – | – | – | – | – | – | – | – |
